Test results from article PMC4259407, “HAX1 regulates E3 ubiquitin ligase activity of cIAPs by promoting their dimerization” (Oncotarget, 2014).

Target: T1, full-length His-tagged cIAP2 (UniProt Q13489 1-604)
T1 construct: also called His-cIAP2; source: E. coli BL21 (DE3), purified (Ni-NTA)
Assay: pull-down; in vitro dimerization assay: purified His-cIAP2 and GST-BUCR with HAX1 or HAX1N (0, 0.5 and 5 μg), preincubated at 4°C for 30 min; Ni-NTA agarose, 4 h at 4°C; 20 mM HEPES, 100 mM NaCl, 5% glycerol, 0.1 mg BSA, 0.1% Triton X-100; blots with anti-His and anti-GST; more complex with HAX1, no effect of HAX1N
Conditions: both partners purified

binding result: binds
B1: GST-tagged cIAP2 fragment (GST-BUCR) (domain or fragment, UniProt Q13489 251-604, looked up)
chain: SMQTHAARFKTFFNWPSSVLVNPEQLASAGFYYVGNSDDVKCFCCDGGLRCWESGDDPWVQHAKWFPRCEYLIRIKGQEFIRQVQASYPHLLEQLLSTSDSPGDENAESSIIHFEPGEDHSEDAIMMNTPVINAAVEMGFSRSLVKQTVQRKILATGENYRLVNDLVLDLLNAEDEIREEERERATEEKESNDLLLIRKNRMALFQHLTCVIPILDSLLTAGIINEQEHDVIKQKTQTSLQARELIDTILVKGNIAATVFRNSLQEAEAVLYEHLFVQQDIKYIPTEDVSDLPVEEQLRRLQEERTCKVCMDKEVSIVFIPCGHLVVCKDCAPSLRKCPICRSTIKGTVRTFLS
notes: cIAP2 residues 251-604 (printed as BUCT in the methods, BUCR in the results), cloned into the GST-tagged vector pGEX-6p-1; also called BUCT (a.a 251–604); source: E. coli BL21 (DE3), purified (glutathione-Sepharose 4B)
